# US20140363428A1 (Chugai, published 2014)
# Residue numbers refer to the chain shown, from its start.
# B1: IgG1-F1138 (antibody)
# heavy: QVQLQESGPGLVKPSETLSLTCAVSGHSISHDHAWSWVRQPPGEGLEWIGFISYSGITNYNPSLQGRVTISRDNSKNTLYLQMNSLRAEDTAVYYCARSLARTTAMDYWGEGTLVTVSSASTKGPSVFPLAPSSKSTSGGTAALGCLVKDYFPEPVTVSWNSGALTSGVHTFPAVLQSSGLYSLSSVVTVPSSSLGTQTYICNVNHKPSNTKVDKKVEPKSCDKTHTCPPCPAPELRGGPKVFLFPPKPKDTLYISRTPEVTCVVVDVSHEDPEVKFNWYVDGVEVHNAKTKPREEQYNSTYRVVSVLTVLHQDWLNGKEYKCKVSNKALPAPIEKTISKAKGQPREPQVYTLPPSRDELTKNQVSLTCLVKGFYPSDIAVEWESNGQPENNYKTTPPVLDSDGSFFLYSKLTVDKSRWQQGNVFSCSVMHEALHYHVTRKELSLSP
# light: not shown
# B2: IgG1-F1261 (antibody)
# heavy: B1 heavy with E442D
# light: not shown
# B3: IgG1-F1262 (antibody)
# heavy: B1 heavy with R440K
# light: not shown
# B4: IgG1-F1263 (antibody)
# heavy: B1 heavy with R440K, E442D
# light: not shown
# B5: IgG1-F1269 (antibody)
# heavy: B1 heavy with H435D, R440K, E442D
# light: not shown
# B6: IgG1-F1305 (antibody)
# heavy: B1 heavy with H435D, E442D
# light: not shown
# B7: IgG1-F1306 (antibody)
# heavy: B1 heavy with H435D, R440K
# light: not shown
# B8: IgG1-F1329 (antibody)
# heavy: B1 heavy with G238R, S256T
# light: not shown
# B9: IgG1-F1331 (antibody)
# heavy: B1 heavy with G238R, S256T, T258E
# light: not shown
# B10: IgG1-F1344 (antibody)
# heavy: B1 heavy with V438T, R440K
# light: not shown
# B11: IgG1-F1349 (antibody)
# heavy: B1 heavy with V438T
# light: not shown
# B12: IgG1-F1350 (antibody)
# heavy: B1 heavy with V438F, R440K
# light: not shown
# B13: IgG1-F1351 (antibody)
# heavy: B1 heavy with V438F
# light: not shown
# B14: F1566 (antibody)
# heavy: B1 heavy with S256T, T258E, N288E, H435D, R440K
# light: DIQMTQSPSSLSASVGDSVTITCQASTDISSHLNWYQQKPGKAPELLIYYGSHLLSGVPSRFSGSGSGTDFTFTISSLEAEDAATYYCGQGNRLPYTFGQGTKVEIERTVAAPSVFIFPPSDEQLKSGTASVVCLLNNFYPREAKVQWKVDNALQSGNSQESVTEQDSKDSTYSLSSTLTLSKADYEKHKVYACEVTHQGLSSPVTKSFNRGEC
# B15: F1601 (antibody)
# heavy: B1 heavy with S256T, T258E, N288E, H435D, R440K, E442D
# light: B14 light
# B16: F1603 (antibody)
# heavy: B1 heavy with S256T, R257L, T258E, H435D, R440K
# light: B14 light
# B17: F1604 (antibody)
# heavy: B1 heavy with S256T, R257L, T258E, H435D, R440K, E442D
# light: B14 light
# B18: F1653 (antibody)
# heavy: B1 heavy with S256T, T258E, H435S, R440K
# light: B14 light
# B19: F1654 (antibody)
# heavy: B1 heavy with S256T, T258E, H435S, E442D
# light: B14 light
# B20: F1655 (antibody)
# heavy: B1 heavy with S256T, T258E, H435S, R440K, E442D
# light: B14 light
# B21: F1599 (antibody)
# chain 1: B1 heavy with S256T, T258E, H435D, R440K, E442D
# chain 2: B14 light
# B22: F1605 (antibody)
# chain 1: B1 heavy with S256T, R257L, T258E, H435D, E442D
# chain 2: B14 light
# B23: F1586 (antibody)
# chain 1: B1 heavy with S256T, R257L, T258E, E260D, H435D
# chain 2: B14 light
# B24: F1592 (antibody)
# chain 1: B1 heavy with S256T, R257L, T258E, E260I, H435D
# chain 2: B14 light
# B25: F1610 (antibody)
# chain 1: B1 heavy with S256T, R257L, T258E, E260D, H435D, R440K
# chain 2: B14 light
# B26: F1611 (antibody)
# chain 1: B1 heavy with S256T, R257L, T258E, E260I, H435D, R440K
# chain 2: B14 light
# B27: F1612 (antibody)
# chain 1: B1 heavy with S256T, R257L, T258E, E260D, H435D, R440K, E442D
# chain 2: B14 light
# B28: F1613 (antibody)
# chain 1: B1 heavy with S256T, R257L, T258E, E260I, H435D, R440K, E442D
# chain 2: B14 light
# B29: F1614 (antibody)
# chain 1: B1 heavy with S256T, R257L, T258E, E260D, H435D, E442D
# chain 2: B14 light
# B30: F1615 (antibody)
# chain 1: B1 heavy with S256T, R257L, T258E, E260I, H435D, E442D
# chain 2: B14 light
# B31: F1567 (antibody)
# chain 1: B1 heavy with S256T, T258E, H435A
# chain 2: B14 light
# B32: F1572 (antibody)
# chain 1: B1 heavy with S256T, T258E, H435K
# chain 2: B14 light
# B33: F1576 (antibody)
# chain 1: B1 heavy with S256T, T258E, H435P
# chain 2: B14 light
# B34: F1578 (antibody)
# chain 1: B1 heavy with S256T, T258E, H435R
# chain 2: B14 light
# B35: IgG1-F1158 (antibody)
# heavy: B1 heavy with V438Y
# light: not shown
# notes: VH3-IgG1 with Fc substitutions (EU numbering) + L(WT)-CK
# Biological target: T1, soluble human FcRn (human, UniProt P55899 24-297; P61769 21-119)
# T1 construct: Heterodimer of alpha chain and beta2-microglobulin; also called hFcRn
# T1 sequence (P55899 24-297 limits assumed, chain 1 of 2): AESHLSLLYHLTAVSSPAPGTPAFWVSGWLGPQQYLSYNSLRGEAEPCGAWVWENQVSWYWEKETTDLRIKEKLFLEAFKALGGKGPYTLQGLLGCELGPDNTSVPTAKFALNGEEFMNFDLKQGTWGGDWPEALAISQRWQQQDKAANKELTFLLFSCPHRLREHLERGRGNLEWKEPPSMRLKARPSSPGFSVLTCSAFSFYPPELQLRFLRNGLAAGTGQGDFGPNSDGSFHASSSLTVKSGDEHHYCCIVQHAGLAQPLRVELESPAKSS
# T1 sequence (P61769 21-119 limits assumed, chain 2 of 2): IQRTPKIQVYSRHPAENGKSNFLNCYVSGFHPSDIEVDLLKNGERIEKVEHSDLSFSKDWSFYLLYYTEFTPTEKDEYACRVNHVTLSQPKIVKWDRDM
# Assay: SPR (Biacore), pH 7.0
row,Binder,Kd [nM]
1,B1,170
2,B2,140
3,B3,130
4,B4,120
5,B5,170
6,B6,200
7,B7,190
8,B8,130
9,B9,77
10,B10,400
11,B11,340
12,B12,120
13,B13,160
14,B14,40
15,B15,35
16,B16,59
17,B17,60

row,Binder,Kd [nM]
1,B18,45
2,B19,45
3,B20,44
4,B21,74
5,B22,61
6,B23,55
7,B24,55
8,B25,48
9,B26,52
10,B27,49
11,B28,52
12,B29,51
13,B30,60
14,B31,48
15,B32,41
16,B33,43
17,B34,46

# Biological target: T2, soluble human FcRn (heterodimer of FcRn alpha chain and beta2-microglobulin) (human, UniProt P55899 24-297; P61769 21-119)
# T2 construct: Expressed in HEK293H and purified on IgG Sepharose; also called hFcRn
# T2 sequence (P55899 24-297 limits assumed, chain 1 of 2): as the sequence (P55899 24-297 limits assumed, chain 1 of 2) above
# T2 sequence (P61769 21-119 limits assumed, chain 2 of 2): as the sequence (P61769 21-119 limits assumed, chain 2 of 2) above
# Assay: SPR Biacore T100, antibody captured via protein L, hFcRn analyte, pH 7.0, 25 C;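 note: KD derived from kinetic ka and kd fits of sensorgrams, CM4 sensor chip, sodium phosphate NaCl Tween20 running buffer, buffer-only injection used as reference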
# Experimental: An appropriate amount of protein L (ACTIGEN) was immobilized onto Sensor chip CM4 (GE Healthcare) by the amino coupling method, and the chip was allowed to capture an antibody of interest. Then, diluted FcRn solutions and running buffer (as a reference solution) were injected to allow human FcRn to interact with the antibody captured on the sensor chip. The running buffer used comprised 50 mmol/l sodium phosphate, 150 mmol/l NaCl, and 0.05% (w/v) Tween20 (pH 7.0). FcRn was diluted using each buffer. The chip was regenerated using 10 mmol/l glycine-HCl (pH 1.5). Assays were carried out exclusively at 25 degrees C. The association rate constant ka (1/Ms) and dissociation rate constant kd (1/s), both of which are kinetic parameters, were calculated based on the sensorgrams obtained in the assays, and KD (M) of each antibody for human FcRn was determined from these values. Each parameter was calculated using Biacore T100 Evaluation Software (GE Healthcare).
row,Binder,Kd [nM]
1,B35,240
